The results in this text go back to publication PMC9018821, “Heterozygous variants in GATA2 contribute to DCML deficiency in mice by disrupting tandem protein binding” (Communications Biology, 2022).

The chains are these.
B1: murine GATA2 finger region containing the NF and CF domains (289 aa to 480 aa), wild type, MBP-fused or GST-fused (domain or fragment)
chain: not shown
notes: GATA2, murine, finger region containing the NF and CF domains, residues 289-480; Two differently tagged copies of the same stretch were used; Each copy carries ONE carrier: MBP-fused (bait on amylose beads) or GST-fused (prey in a1, bait on glutathione beads in a2); They are kept as one molecule because the protein is tested against itself; also called G2^WT; MBP-fused G2^WT

Series [1] concerns the molecule itself. Nature of the series: pull-down; recombinant MBP-fused bait mixed with GST-fused prey in binding buffer at room temperature; complexes purified with amylose magnetic beads; immunoblot with anti-GST and anti-MBP. (In general: A western blot detects proteins with antibodies after separation by electrophoresis.)
In series [2] the target is B1. Described as above. Particulars: both partners purified.

Take B1: the binding result in series [1] is “binds”.

B2: murine GATA2 finger region (289 aa to 480 aa) with R398W, GST-fused or MBP-fused (domain or fragment)
chain: not shown
notes: GATA2, murine, finger region containing the NF and CF domains, residues 289-480, with the patient mutation R398W; Each copy carries ONE carrier: GST-fused in a1 (prey), MBP-fused in a2 (prey); The mutation corresponds to a human germline GATA2 mutation found in patients; also called G2^R398W; GST-fused G2^R398W
For B2, in series [2], the binding result was “binds”.

B3: murine GATA2 finger region (289 aa to 480 aa) with T354M, GST-fused or MBP-fused (domain or fragment)
chain: not shown
notes: GATA2, murine, finger region containing the NF and CF domains, residues 289-480, with the patient mutation T354M; Each copy carries ONE carrier: GST-fused in a1 (prey), MBP-fused in a2 (prey); The mutation is a germline GATA2 mutation found in patients; also called G2^T354M; GST-fused G2^T354M
Turning to B3, the binding result in series [2] is “binds”.
